For experiment [1], the target named is GST-tagged FL-importin α1 (mouse) (UniProt P52293). Briefly: pull-down.
Experiment [2] deals with GST-tagged FL-importin α7 (human) (UniProt O60684). Briefly: pull-down.

Take “MBP-tagged PB2-NLD-K718A (from UniProt P31345 678-759) (domain or fragment)”: the percent of importin α bound to cargo stood at 20% in experiment [1] and 43% in experiment [2].

These data come from article PMC4346194.
